In publication PMC12175908:

Target: Paxillin N-domain (residues 1 to 311) (human) (UniProt P49023)
Experiment: NMR titration; 100 μM 15N-PXN N-domain, unlabeled FAT added (10 to 300 μM); 2D 1H-15N HSQC, decay of amide peak intensity per LD motif, fraction bound against total FAT; effective (relative) constants for single LD motifs; 100 mM potassium phosphate, 1 mM TCEP, 0.1 mM EDTA, pH 7.0, 10°C

Chain of UniProt P49023 (P49023 other isoform, or with tags, fused parts or gaps): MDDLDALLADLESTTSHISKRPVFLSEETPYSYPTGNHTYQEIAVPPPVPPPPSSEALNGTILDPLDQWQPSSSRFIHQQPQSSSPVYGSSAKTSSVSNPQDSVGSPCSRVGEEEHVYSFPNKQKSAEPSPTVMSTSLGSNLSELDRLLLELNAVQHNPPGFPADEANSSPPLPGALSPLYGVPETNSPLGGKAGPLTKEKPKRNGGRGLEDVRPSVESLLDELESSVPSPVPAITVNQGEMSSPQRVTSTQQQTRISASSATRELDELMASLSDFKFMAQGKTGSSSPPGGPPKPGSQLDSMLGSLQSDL

focal adhesion targeting (FAT) domain of focal adhesion kinase (domain or fragment)
effective Kd of the LD1 motif: 17 µM
effective Kd of the LD2 motif: 7000 µM
effective Kd of the LD4 motif: 13 µM
